biological target: SARS-CoV-2 nucleocapsid protein (NP) (Severe acute respiratory syndrome …, UniProt P0DTC9); assay: BLI

| Binder | Kd [nM] |
| --- | --- |
| 12H1 scFv-Fc antibody (scFv, V domains shown) VH: AVTLDESGGGLQTPGGTLSLVCKASGFTFSDRGMHWVRQAPGKGLEWVAGIRGDGSYTDYAPAVKGRATISRDNGQSTVRLQLNNLRAEDTATYYCAKSSYKCSTWSCRGYESDSIDAWGHGTEVIVSS VL: LTQPSSVSANLGGTVKMTCSGGSSGYGWYQQKSPGSAPVTLIYYNDKRPSGIPSRFSGSKSDSTGTLTITGVQAEDEAVYYCGNTDSSYVGMFGAGTTLTVL | 18.3 |
| 12H8 scFv-Fc antibody (scFv, V domains shown) VH: AVTLDESGGGLQTPGGGLSLVCKASGFTFSNYGMDWVRQAPGKGLEWVAGIDNDGSGRGYGAAVKGRATISRDNGQSTVRLQLNNLRAEDTATYYCAKSTYGGRGCCDTTDAWGHGTEVIVSS VL: LTQPSSVSANPGETVKITCSGGGSWYGWFQQKSPGSAPVTVINANTNRPSDIPSRFSGSKSGSTGTLTITGVQADDEAVYFCGSYDSSTDSGIFGAGTTLTVL | 1.31 |
| 12B3 scFv-Fc antibody (scFv, V domains shown) VH: AVTLDESGGGLRTPRGALSLVCKASGFSFSDHGMAWVRQAPGKGLEWVAGISSGGSGTEYGAAVKGRATISRDNGQSTVRLQLNNLRAEDTGTYYCAKTTSPYCGWSGSLDYDCGAEDIDAWGHGTEVIVSS VL: LTQPSSVSANLGETVKITCSGDSNYYGWYQQKSPGSAPVTVIYDNAKRPSNIPSRFSGSKSGSTNTLTITGVQAEDEAVYFCGGWDSDTGTFGAGTTLTVL | 8.47 |
| 1G5 scFv-Fc antibody (scFv, V domains shown) VH: AVTLDESGGGLQTPGGALSLVCKASGFTFSSYGMFWVRQAPGKGLEFVASITNTGSYTTYGAAVEGRATISRDNGQSTVRLQLNNLRAEDTAIYYCAKTSCNNCGWSGPGYIDAWGHGTEVIVSS VL: LTQPSSVSANLGGTVKITCSGGGNDYGWYQQKAPGSAPVTVINTNDKRPSDIPSRFSGSKSGSTATLTITGVQAEDEAVYFCGAYDSSTSADIFGAGTTLTVL | 2.86 |

— publication PMC7703470 (Biosensors & Bioelectronics, 2020)
